Experimental findings from patent US20110166062A1 (INDIANA UNIVERSITY RESEARCH AND TECHNOLOGY, published 2011) are described below.

The EC50 is the midpoint of the concentration-response curve. The low end stands for higher potency in that assay, the high end for lower potency in that assay.

Assay in all cases: cell-based or functional assay
The target in one assay is glucagon receptor (UniProt P47871 26-477, limits assumed).
For the next assay, the target named is GLP-1 receptor (UniProt P43220 24-463, limits assumed).
The target in the next assay is T1, GIP receptor (UniProt P48546 22-466).
T1 sequence (looked up): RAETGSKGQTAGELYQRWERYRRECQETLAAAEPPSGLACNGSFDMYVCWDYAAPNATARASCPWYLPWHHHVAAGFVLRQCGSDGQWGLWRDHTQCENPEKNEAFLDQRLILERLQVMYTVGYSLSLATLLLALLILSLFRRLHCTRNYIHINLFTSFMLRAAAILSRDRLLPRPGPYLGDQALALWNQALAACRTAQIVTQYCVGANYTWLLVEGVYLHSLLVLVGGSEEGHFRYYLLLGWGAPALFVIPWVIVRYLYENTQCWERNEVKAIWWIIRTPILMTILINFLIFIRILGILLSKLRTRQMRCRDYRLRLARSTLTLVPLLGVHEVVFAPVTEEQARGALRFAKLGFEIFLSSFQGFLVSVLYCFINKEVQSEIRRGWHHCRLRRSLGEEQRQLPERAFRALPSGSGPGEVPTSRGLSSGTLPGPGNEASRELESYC

Bridges are numbered along the chain shown (N, C = ends). Where no end group is shown, it is not given here.

Sequence of glucagon receptor (P47871 26-477 limits assumed): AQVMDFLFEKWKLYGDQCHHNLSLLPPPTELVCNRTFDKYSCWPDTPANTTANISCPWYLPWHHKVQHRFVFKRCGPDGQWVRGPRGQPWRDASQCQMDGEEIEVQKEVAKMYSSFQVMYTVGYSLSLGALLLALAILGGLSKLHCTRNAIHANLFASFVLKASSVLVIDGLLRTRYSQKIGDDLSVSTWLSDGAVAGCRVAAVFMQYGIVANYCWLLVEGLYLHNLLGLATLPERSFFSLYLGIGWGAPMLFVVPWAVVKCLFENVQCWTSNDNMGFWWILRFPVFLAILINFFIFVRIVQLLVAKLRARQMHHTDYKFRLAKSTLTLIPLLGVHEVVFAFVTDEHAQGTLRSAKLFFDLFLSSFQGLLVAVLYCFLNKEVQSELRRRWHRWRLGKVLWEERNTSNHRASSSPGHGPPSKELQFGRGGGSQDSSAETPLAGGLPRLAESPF

B1: mt-111 (peptide)
peptide: HSQGTFTSDYSKYLDEIHQKDFVNWLLAQ-NH2
modifications: lactam 16-20; N-terminus assumed
SMILES: CC[C@H](C)[C@@H]1NC(=O)[C@@H](NC(=O)[C@H](CC(=O)O)NC(=O)[C@H](CC(C)C)NC(=O)[C@H](Cc2ccc(O)cc2)NC(=O)[C@H](CCCCN)NC(=O)[C@H](CO)NC(=O)[C@H](Cc2ccc(O)cc2)NC(=O)[C@H](CC(=O)O)NC(=O)[C@H](CO)NC(=O)[C@@H](NC(=O)[C@H](Cc2ccccc2)NC(=O)[C@@H](NC(=O)CNC(=O)[C@H](CCC(N)=O)NC(=O)[C@H](CO)NC(=O)[C@@H](N)Cc2c[nH]cn2)[C@@H](C)O)[C@@H](C)O)CCC(=O)NCCCC[C@@H](C(=O)N[C@@H](CC(=O)O)C(=O)N[C@@H](Cc2ccccc2)C(=O)N[C@H](C(=O)N[C@@H](CC(N)=O)C(=O)N[C@@H](Cc2c[nH]c3ccccc23)C(=O)N[C@@H](CC(C)C)C(=O)N[C@@H](CC(C)C)C(=O)N[C@@H](C)C(=O)N[C@@H](CCC(N)=O)C(N)=O)C(C)C)NC(=O)[C@H](CCC(N)=O)NC(=O)[C@H](Cc2c[nH]cn2)NC1=O
As for B1, the half-maximal effective concentration (EC50) with glucagon receptor came out at 0.27 nM; with GLP-1 receptor, 0.66 nM; in the assay with GIP receptor, 6.26 nM. Also, the relative activity with glucagon receptor was found to be 85.2%; in the assay with GLP-1 receptor, 10.6%; with GIP receptor it was 0.78%.
As for YSQGTFTSDYSKYLDEIHQKDFVNWLLAGGPSSGAPPPS-NH2 [mt-116], the entries for the “EC50” value with glucagon receptor, in the assay with GLP-1 receptor and with GIP receptor were 0.787 nM, 3.8 nM and 0.617 nM, respectively. Besides, the relative activity in the assay with glucagon receptor was 18.7%; in the assay with GLP-1 receptor it was 1.07%; in the assay with GIP receptor it was 7.62%.

B2: mt-115 (peptide)
peptide: HSQGTFTSDYSKYLDEIHQKDFVNWLLAGGPSSGAPPPS-NH2
modifications: lactam 16-20; N-terminus assumed
SMILES: CC[C@H](C)[C@@H]1NC(=O)[C@@H](NC(=O)[C@H](CC(=O)O)NC(=O)[C@H](CC(C)C)NC(=O)[C@H](Cc2ccc(O)cc2)NC(=O)[C@H](CCCCN)NC(=O)[C@H](CO)NC(=O)[C@H](Cc2ccc(O)cc2)NC(=O)[C@H](CC(=O)O)NC(=O)[C@H](CO)NC(=O)[C@@H](NC(=O)[C@H](Cc2ccccc2)NC(=O)[C@@H](NC(=O)CNC(=O)[C@H](CCC(N)=O)NC(=O)[C@H](CO)NC(=O)[C@@H](N)Cc2c[nH]cn2)[C@@H](C)O)[C@@H](C)O)CCC(=O)NCCCC[C@@H](C(=O)N[C@@H](CC(=O)O)C(=O)N[C@@H](Cc2ccccc2)C(=O)N[C@H](C(=O)N[C@@H](CC(N)=O)C(=O)N[C@@H](Cc2c[nH]c3ccccc23)C(=O)N[C@@H](CC(C)C)C(=O)N[C@@H](CC(C)C)C(=O)N[C@@H](C)C(=O)NCC(=O)NCC(=O)N2CCC[C@H]2C(=O)N[C@@H](CO)C(=O)N[C@@H](CO)C(=O)NCC(=O)N[C@@H](C)C(=O)N2CCC[C@H]2C(=O)N2CCC[C@H]2C(=O)N2CCC[C@H]2C(=O)N[C@@H](CO)C(N)=O)C(C)C)NC(=O)[C@H](CCC(N)=O)NC(=O)[C@H](Cc2c[nH]cn2)NC1=O
As for B2, the entries for the “EC50” value with glucagon receptor, in the assay with GLP-1 receptor and with GIP receptor were 0.44 nM, 0.15 nM and 3.58 nM, respectively. Also, the results for the relative activity in the assay with glucagon receptor, with GLP-1 receptor and with GIP receptor were 11.4%, 20% and 1.31%, respectively.
For the molecule YSQGTFTSDYSKYLDEIHQKEFVNWLLAQ-NH2 [mt-118], the figures for the “EC50” value with glucagon receptor, with GLP-1 receptor and with GIP receptor were 0.04 nM, 1.28 nM and 0.736 nM, respectively. Also, the relative activity with glucagon receptor amounted to 125%; with GLP-1 receptor, 2.34%; in the assay with GIP receptor, 6.39%.

B3: mt-110 (peptide)
peptide: YSQGTFTSDYSIYLDEIHQKDFVNWLLAQ-NH2
modifications: lactam 16-20; N-terminus assumed
SMILES: CC[C@H](C)[C@H](NC(=O)[C@H](CO)NC(=O)[C@H](Cc1ccc(O)cc1)NC(=O)[C@H](CC(=O)O)NC(=O)[C@H](CO)NC(=O)[C@@H](NC(=O)[C@H](Cc1ccccc1)NC(=O)[C@@H](NC(=O)CNC(=O)[C@H](CCC(N)=O)NC(=O)[C@H](CO)NC(=O)[C@@H](N)Cc1ccc(O)cc1)[C@@H](C)O)[C@@H](C)O)C(=O)N[C@@H](Cc1ccc(O)cc1)C(=O)N[C@@H](CC(C)C)C(=O)N[C@@H](CC(=O)O)C(=O)N[C@H]1CCC(=O)NCCCC[C@@H](C(=O)N[C@@H](CC(=O)O)C(=O)N[C@@H](Cc2ccccc2)C(=O)N[C@H](C(=O)N[C@@H](CC(N)=O)C(=O)N[C@@H](Cc2c[nH]c3ccccc23)C(=O)N[C@@H](CC(C)C)C(=O)N[C@@H](CC(C)C)C(=O)N[C@@H](C)C(=O)N[C@@H](CCC(N)=O)C(N)=O)C(C)C)NC(=O)[C@H](CCC(N)=O)NC(=O)[C@H](Cc2c[nH]cn2)NC(=O)[C@H]([C@@H](C)CC)NC1=O
Consider B3, for which the figures for the “EC50” value with glucagon receptor, in the assay with GLP-1 receptor and with GIP receptor were 0.43 nM, 2.02 nM and 0.478 nM, respectively. For the same molecule, the relative activity with glucagon receptor turned out to be 23.3%; with GLP-1 receptor, 1.49%; in the assay with GIP receptor it was 9.62%.

B4: mt-120 (peptide)
peptide: YSQGTFTSDYSKYLDEQAAKEFIAWLMNGGPSSGAPPPS-NH2
modifications: lactam 16-20; N-terminus assumed
SMILES: CC[C@H](C)[C@H](NC(=O)[C@H](Cc1ccccc1)NC(=O)[C@H](CCC(=O)O)NC(=O)[C@@H]1CCCCNC(=O)CC[C@H](NC(=O)[C@H](CC(=O)O)NC(=O)[C@H](CC(C)C)NC(=O)[C@H](Cc2ccc(O)cc2)NC(=O)[C@H](CCCCN)NC(=O)[C@H](CO)NC(=O)[C@H](Cc2ccc(O)cc2)NC(=O)[C@H](CC(=O)O)NC(=O)[C@H](CO)NC(=O)[C@@H](NC(=O)[C@H](Cc2ccccc2)NC(=O)[C@@H](NC(=O)CNC(=O)[C@H](CCC(N)=O)NC(=O)[C@H](CO)NC(=O)[C@@H](N)Cc2ccc(O)cc2)[C@@H](C)O)[C@@H](C)O)C(=O)N[C@@H](CCC(N)=O)C(=O)N[C@@H](C)C(=O)N[C@@H](C)C(=O)N1)C(=O)N[C@@H](C)C(=O)N[C@@H](Cc1c[nH]c2ccccc12)C(=O)N[C@@H](CC(C)C)C(=O)N[C@@H](CCSC)C(=O)N[C@@H](CC(N)=O)C(=O)NCC(=O)NCC(=O)N1CCC[C@H]1C(=O)N[C@@H](CO)C(=O)N[C@@H](CO)C(=O)NCC(=O)N[C@@H](C)C(=O)N1CCC[C@H]1C(=O)N1CCC[C@H]1C(=O)N1CCC[C@H]1C(=O)N[C@@H](CO)C(N)=O
B4: the “EC50” value in the assay with glucagon receptor turned out to be 0.074 nM; in the assay with GLP-1 receptor, 0.399 nM; in the assay with GIP receptor, 2.62 nM. In addition, the relative activity in the assay with glucagon receptor is 259%; with GLP-1 receptor, 13.4%; in the assay with GIP receptor, 1.81%.
